Key:
[1] = target: T1, MucA' (plasmid pKM101 (expressed in E. coli …, UniProt Q79BK8 26-146)); test: SPR; MucA' alone; SPR (BIAcore 2000, SA chip): 20 mM HEPES pH 8.0, 50 mM K-glutamate, 10 mM Mg acetate, 5% glycerol, 0.1 mM EDTA, 2 mM DTT, 0.05% Surfactant P20 (1% P20 in MucB sample); temperature not stated; details: protein: recombinant; tags: none stated (pYG8506, pET-16b based); chain copies: 2; label: 5'-biotin; single strand
T1 sequence: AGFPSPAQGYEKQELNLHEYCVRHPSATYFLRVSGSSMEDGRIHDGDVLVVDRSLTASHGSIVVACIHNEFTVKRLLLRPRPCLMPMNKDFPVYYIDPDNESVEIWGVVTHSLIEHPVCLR

[2] = target: T2, MucB (plasmid pKM101 (expressed in E. coli …, UniProt Q79BK7 1-421)); test: SPR; MucB 0.26 uM alone; 10 mM Mg acetate; SPR (BIAcore 2000, SA chip): 20 mM HEPES pH 8.0, 50 mM K-glutamate, 10 mM Mg acetate, 5% glycerol, 0.1 mM EDTA, 2 mM DTT, 0.05% Surfactant P20 (1% P20 in MucB sample); temperature not stated; details: protein: recombinant; tags: none stated (untagged construct pYG8512); label: 5'-biotin; single strand
T2 sequence: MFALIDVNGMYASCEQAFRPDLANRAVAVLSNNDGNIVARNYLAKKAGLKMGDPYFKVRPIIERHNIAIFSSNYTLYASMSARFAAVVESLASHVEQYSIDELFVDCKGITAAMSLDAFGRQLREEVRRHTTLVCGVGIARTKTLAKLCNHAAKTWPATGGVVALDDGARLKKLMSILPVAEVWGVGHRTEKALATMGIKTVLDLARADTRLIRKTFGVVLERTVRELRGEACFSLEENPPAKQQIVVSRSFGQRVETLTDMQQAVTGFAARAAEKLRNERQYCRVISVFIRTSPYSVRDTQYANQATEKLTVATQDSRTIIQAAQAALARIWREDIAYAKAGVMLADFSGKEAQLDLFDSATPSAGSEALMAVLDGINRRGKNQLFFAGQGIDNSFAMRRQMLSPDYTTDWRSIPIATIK

B1: 73-mer ssDNA oligonucleotide (ssDNA)
DNA: GCGGCGGTTGAGTAGCTCTTCTTCCAGCACGTTTTCGCCGATAATACCGGGATCGACCACGCCATCCATTACC
- binding result [1]: no binding
- binding result [2]: binds

— paper PMC6495647, “Purification and interactions of the MucA’ and MucB proteins constituting the DNA polymerase RI”
